From PMC4517869, “EIN3 and ORE1 Accelerate Degreening during Ethylene-Mediated Leaf Senescence by Directly Activating Chlorophyll Catabolic Genes in Arabidopsis” come the findings set out here.

In data set [1] the target is T1, MBP-ORE1 (Arabidopsis thaliana, UniProt Q9FKA0 1-285).
T1 sequence: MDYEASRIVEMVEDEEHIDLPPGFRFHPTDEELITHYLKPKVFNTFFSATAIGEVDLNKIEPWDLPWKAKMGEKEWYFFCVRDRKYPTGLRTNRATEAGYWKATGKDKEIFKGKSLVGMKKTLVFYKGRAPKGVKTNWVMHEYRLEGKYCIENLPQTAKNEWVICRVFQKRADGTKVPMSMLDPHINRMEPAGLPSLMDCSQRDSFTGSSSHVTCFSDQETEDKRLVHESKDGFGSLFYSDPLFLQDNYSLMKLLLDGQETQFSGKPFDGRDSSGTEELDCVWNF
Nature of the data set: EMSA; LightShift Chemiluminescent EMSA kit binding buffer (composition, pH, temperature not given); 400 ng protein, 12.5 fmol 5'-biotin probe, 1 ug poly(dI-dC), 15 min. The settings on record: protein: recombinant; tags: N-terminal MBP (pMAL-c5g); chain copies: 2; label: 5'-biotin; blunt.

Data set [2] addresses T2, MBP-N-EIN3 (Arabidopsis thaliana, UniProt O24606 1-314).
T2 sequence: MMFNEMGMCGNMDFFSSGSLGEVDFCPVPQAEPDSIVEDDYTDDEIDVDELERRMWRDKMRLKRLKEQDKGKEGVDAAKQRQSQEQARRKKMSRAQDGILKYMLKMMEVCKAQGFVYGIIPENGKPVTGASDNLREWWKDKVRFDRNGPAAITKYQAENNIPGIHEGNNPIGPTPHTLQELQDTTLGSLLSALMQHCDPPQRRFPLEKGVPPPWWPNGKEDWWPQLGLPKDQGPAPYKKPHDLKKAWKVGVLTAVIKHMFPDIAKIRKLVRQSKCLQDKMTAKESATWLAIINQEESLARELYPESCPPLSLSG
Nature of the data set: competition; unlabeled 800-fold excess vs PAO-EBS; LightShift Chemiluminescent EMSA kit binding buffer (composition, pH, temperature not given); 400 ng protein, 12.5 fmol 5'-biotin probe, 1 ug poly(dI-dC), 15 min. The conditions noted are these: protein: recombinant; tags: N-terminal MBP (pMAL-c5g); chain copies: 2; blunt. A general note: Mobility shift assays separate free from complexed probe on a gel.

Data set [3] addresses T2, MBP-N-EIN3. Nature of the data set: competition; unlabeled 800-fold excess vs NYC1-EBS; LightShift Chemiluminescent EMSA kit binding buffer (composition, pH, temperature not given); 400 ng protein, 12.5 fmol 5'-biotin probe, 1 ug poly(dI-dC), 15 min. The settings on record: protein: recombinant; tags: N-terminal MBP (pMAL-c5g); chain copies: 2; blunt.
Data set [4] has as its target T2, MBP-N-EIN3. Nature of the data set: EMSA; LightShift Chemiluminescent EMSA kit binding buffer (composition, pH, temperature not given); 400 ng protein, 12.5 fmol 5'-biotin probe, 1 ug poly(dI-dC), 15 min. The conditions noted are these: protein: recombinant; tags: N-terminal MBP (pMAL-c5g); chain copies: 2; label: 5'-biotin; blunt.
In data set [5] the target is T2, MBP-N-EIN3. Nature of the data set: competition; unlabeled 800-fold excess vs NYE1-EBS; LightShift Chemiluminescent EMSA kit binding buffer (composition, pH, temperature not given); 400 ng protein, 12.5 fmol 5'-biotin probe, 1 ug poly(dI-dC), 15 min. The conditions noted are these: protein: recombinant; tags: N-terminal MBP (pMAL-c5g); chain copies: 2; blunt.
The target in data set [6] is T2, MBP-N-EIN3. Nature of the data set: competition; unlabeled 800-fold excess vs ORE1-EBS; LightShift Chemiluminescent EMSA kit binding buffer (composition, pH, temperature not given); 400 ng protein, 12.5 fmol 5'-biotin probe, 1 ug poly(dI-dC), 15 min. The conditions noted are these: protein: recombinant; tags: N-terminal MBP (pMAL-c5g); chain copies: 2; blunt.

B1: NOL-OBS (dsDNA)
DNA 1: AGCTTGCTCGCTTACGCAACTCTCTCTCT
DNA 2: AGAGAGAGAGTTGCGTAAGCGAGCAAGCT
On to B1, for which, in data set [1], the binding result was “binds”.

B2: NYE1-OBS (dsDNA)
DNA 1: GTGGTTTCAGTGTACGAACACGCAAGAACTC
DNA 2: GAGTTCTTGCGTGTTCGTACACTGAAACCAC
For B2, in data set [1], the binding result is “binds”.

B3: PAO-EBSm (dsDNA)
DNA 1: GCTTGAAATAAAAAAAAACAGAAGAGTA
DNA 2: TACTCTTCTGTTTTTTTTTATTTCAAGC
For the molecule B3, the binding result in data set [2] was “no binding”.

B4: ACS2-OBS (dsDNA)
DNA 1: GGAATTATGTGGAGGACGTACGTTTATACATGTGCAGACTACAAC
DNA 2: GTTGTAGTCTGCACATGTATAAACGTACGTCCTCCACATAATTCC
Turning to B4, the binding result in data set [1] was “binds”.

B5: NYC1-EBSm (dsDNA)
DNA 1: TAATTTACTCAAAAAAAAAAGTAATGAC
DNA 2: GTCATTACTTTTTTTTTTGAGTAAATTA
Turning to B5, the binding result in data set [3] is on record as “no binding”.

B6: NYC1-OBS (dsDNA)
DNA 1: GAGGTTGCTGTAACGTGTGGCCATCACAC
DNA 2: GTGTGATGGCCACACGTTACAGCAACCTC
Consider B6, for which the binding result in data set [1] is listed as “binds”.

B7: PAO-OBS (dsDNA)
DNA 1: ATTGCATACTTGCACGCAATCTCTTCTTC
DNA 2: GAAGAAGAGATTGCGTGCAAGTATGCAAT
B7: the binding result in data set [1] is reported as “binds”.

B8: PAO-EBS (dsDNA)
DNA 1: GCTTGAAATAAGATTCATCAGAAGAGTA
DNA 2: TACTCTTCTGATGAATCTTATTTCAAGC
For B8, in data set [4], the binding result is recorded as “binds”.

B9: NYE1-EBSm (dsDNA)
DNA 1: GTTTAGGTAAGCAATTTTTTTTTGGATAAACGAAATGC
DNA 2: GCATTTCGTTTATCCAAAAAAAAATTGCTTACCTAAAC
Turning to B9, the binding result in data set [5] is reported as “no binding”.

B10: ORE1-EBSm (dsDNA)
DNA 1: ATACTTTACAAGGGTAATGCATGCATAC
DNA 2: GTATGCATGCATTACCCTTGTAAAGTAT
With B10, the binding result in data set [6] was “no binding”.

B11: NYE1-EBS (dsDNA)
DNA 1: GTTTAGGTAAGCAATACGAACCTGGATAAACGAAATGC
DNA 2: GCATTTCGTTTATCCAGGTTCGTATTGCTTACCTAAAC
Consider B11, for which, in data set [4], the binding result was “binds”.

B12: NYC1-EBS (dsDNA)
DNA 1: TAATTTACTCAGGTACATAAGTAATGAC
DNA 2: GTCATTACTTATGTACCTGAGTAAATTA
For B12, in data set [4], the binding result was “binds”.
